Changes are numbered by the printed parent chain. Blank lines part the entries; values can stand above or below the binder they belong to.
Legend:
[1] = target: T1, human CXCR2 (human, UniProt P25025 1-360); test: ELISA, L1.2 hCXCR2 cells
T1 construct: also called hCXCR2; C-X-C motif chemokine receptor 2
T1 sequence: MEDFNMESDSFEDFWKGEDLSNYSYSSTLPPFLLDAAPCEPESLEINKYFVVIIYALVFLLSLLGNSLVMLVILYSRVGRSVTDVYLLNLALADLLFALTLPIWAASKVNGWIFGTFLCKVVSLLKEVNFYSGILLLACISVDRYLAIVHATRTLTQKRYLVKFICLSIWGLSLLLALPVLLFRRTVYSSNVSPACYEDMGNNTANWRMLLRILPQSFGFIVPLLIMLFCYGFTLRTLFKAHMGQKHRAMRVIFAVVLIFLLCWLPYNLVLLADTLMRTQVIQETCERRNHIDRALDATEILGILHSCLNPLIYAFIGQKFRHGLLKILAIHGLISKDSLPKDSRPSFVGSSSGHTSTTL

[2] = target: T1, human CXCR2; test: flow cytometry on L1.2 hCXCR2 cells
[3] = target: T2, human CXCR7 (human, UniProt P25106 1-362); test: flow cytometry on transfected cells
T2 construct: whole, on cells; also called hCXCR7
T2 sequence (P25106 whole entry): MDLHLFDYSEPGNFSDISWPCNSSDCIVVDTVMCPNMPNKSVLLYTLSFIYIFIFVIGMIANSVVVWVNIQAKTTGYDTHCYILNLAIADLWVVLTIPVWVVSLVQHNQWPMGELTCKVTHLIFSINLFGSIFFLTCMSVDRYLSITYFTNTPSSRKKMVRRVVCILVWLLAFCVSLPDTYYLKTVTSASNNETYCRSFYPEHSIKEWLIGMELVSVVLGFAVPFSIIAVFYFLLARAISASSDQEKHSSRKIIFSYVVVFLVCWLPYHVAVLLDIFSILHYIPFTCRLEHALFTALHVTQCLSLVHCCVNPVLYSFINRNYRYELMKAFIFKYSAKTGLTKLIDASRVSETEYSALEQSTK
Description: (§1) To assess reactivity of mAbs against transfected cells, we used indirect immunofluorescence staining and flow cytometry. Cells were washed once with PBS and resuspended in 100 μl PBS containing 2% (wt/vol) BSA and 0.1% (wt/vol) sodium azide (staining buffer) and purified antibody. After 30 min at 4° C., cells were washed twice with staining buffer and resuspended in 50 μl PE-conjugated anti-human IgG (Jackson ImmunoResearch Laboratories) diluted 1:500 in staining buffer for the detection of humanized mAbs or 50 μl PE-conjugated anti-mouse IgG (Jackson ImmunoResearch Laboratories) for the detection of mouse mAbs. After incubating for 20 min at 4° C., cells were washed twice with staining buffer and analyzed on LSRII flow cytometer. 7-AAD staining was used to exclude dead cells.

[4] = target: T3, human CCR6 (human, UniProt P51684 1-374); test: flow cytometry on transfected cells
T3 construct: whole, on cells; also called hCCR6
T3 sequence (looked up): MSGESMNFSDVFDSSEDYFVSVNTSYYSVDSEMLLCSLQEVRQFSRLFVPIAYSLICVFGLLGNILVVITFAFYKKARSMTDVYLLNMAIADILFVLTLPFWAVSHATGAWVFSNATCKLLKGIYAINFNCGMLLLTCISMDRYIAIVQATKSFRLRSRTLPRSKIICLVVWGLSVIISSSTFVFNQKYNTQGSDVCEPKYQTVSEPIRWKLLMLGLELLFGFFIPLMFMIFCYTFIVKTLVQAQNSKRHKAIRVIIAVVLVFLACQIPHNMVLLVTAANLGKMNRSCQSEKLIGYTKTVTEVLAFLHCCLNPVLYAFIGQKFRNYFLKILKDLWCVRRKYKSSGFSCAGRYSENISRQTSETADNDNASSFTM
Description: as §1

[5] = target: T4, human CXCR1 (human, UniProt P25024 1-350); test: flow cytometry on transfected cells
T4 construct: whole, on cells; also called hCXCR1
T4 sequence (looked up): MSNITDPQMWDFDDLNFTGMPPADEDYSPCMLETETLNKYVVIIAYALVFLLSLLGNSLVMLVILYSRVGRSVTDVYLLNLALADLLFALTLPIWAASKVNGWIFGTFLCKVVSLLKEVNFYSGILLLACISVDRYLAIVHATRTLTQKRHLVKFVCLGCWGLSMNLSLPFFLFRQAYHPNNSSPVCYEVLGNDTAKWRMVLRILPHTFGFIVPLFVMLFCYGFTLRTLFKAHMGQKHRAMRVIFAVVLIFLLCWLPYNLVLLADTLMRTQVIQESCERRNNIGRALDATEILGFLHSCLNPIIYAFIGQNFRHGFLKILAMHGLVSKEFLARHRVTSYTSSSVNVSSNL
Description: as §1

[6] = target: T5, human CXCR3 (human, UniProt P49682 1-368); test: flow cytometry on transfected cells
T5 construct: whole, on cells; also called hCXCR3
T5 sequence (looked up): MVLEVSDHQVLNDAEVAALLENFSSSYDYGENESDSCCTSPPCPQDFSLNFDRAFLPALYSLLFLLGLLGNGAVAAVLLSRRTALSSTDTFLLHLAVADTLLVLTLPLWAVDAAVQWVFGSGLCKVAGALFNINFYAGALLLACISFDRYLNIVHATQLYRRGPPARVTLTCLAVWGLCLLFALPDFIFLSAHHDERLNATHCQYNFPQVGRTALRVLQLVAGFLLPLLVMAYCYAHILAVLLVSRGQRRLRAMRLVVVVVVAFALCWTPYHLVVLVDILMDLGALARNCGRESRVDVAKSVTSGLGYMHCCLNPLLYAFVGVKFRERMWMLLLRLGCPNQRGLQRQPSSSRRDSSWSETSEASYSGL
Description: as §1

[7] = target: T6, Peptide 1 (human, biotinylated (position not given)); test: ELISA on biotinylated peptide captured on streptavidin
T6 construct: Biotinylated peptide of the human CXCR2 N-terminal region, captured on streptavidin plates; also called Nter-1; Peptide 1/Nter-1
T6 peptide: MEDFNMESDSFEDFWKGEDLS
Description: (§2) Epitope mapping studies were performed to determine the region within CXCR2 that is recognized by anti-CXCR2 mAb. Initially, biotinylated peptides corresponding to the N-terminal region and the first, second and third extracellular loops of human CXCR2 were used in an ELISA.
(§3) Three overlapping biotinylated peptides spanning the entire N-terminal region of human CXCR2 were then synthesized and used in more defined anti-CXCR2 mAb epitope mapping studies. Peptide 1 ([…]) (SEQ ID NO:53) corresponds to amino acid position 1-21 of the human CXCR2; Peptide 2 ([…]) (SEQ ID NO:55) corresponds to amino acid position 10-31 and Peptide 3 ([…]) (SEQ ID NO:54) corresponds to amino acid 20-46 position of the human CXCR2. Briefly, multiwell plates were coated with streptavidin and washed before the biotinylated peptides were added to separate wells and incubated to facilitate binding of the peptides to the plate. Different anti-human CXCR2 antibodies were then tested by adding the respective antibodies to the wells of the plate and incubating the plate. An isotype control and buffer only were included as negative controls. Following washing, appropriate conjugated antibodies were added and the plates were incubated. The plates were washed again and binding of the antibodies to the immobilised peptides was visualised.

[8] = target: T7, Peptide 2 (human, biotinylated (position not given)); test: as above
T7 construct: Biotinylated peptide of the human CXCR2 N-terminal region, captured on streptavidin plates; also called Nter-2; Peptide 2/Nter-2
T7 peptide: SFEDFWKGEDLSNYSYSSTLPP
Description: as §2, §3

[9] = target: T8, Peptide 3 (human, biotinylated (position not given)); test: as above
T8 construct: Biotinylated peptide of the human CXCR2 N-terminal region; also called Nter-3; Peptide 3/Nter-3
T8 peptide: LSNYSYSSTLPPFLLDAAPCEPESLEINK
Description: as §2, §3

[10] = target: T9, biotinylated peptide corresponding to the second extracellular loop of human CXCR2 (human, UniProt P25025 184-208, limits assumed, biotinylated (position not given)); test: as above
T9 construct: domain: second extracellular loop; also called 2nd loop
T9 peptide (looked up): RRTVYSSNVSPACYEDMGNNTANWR
Description: as §2, §3

[11] = target: T10, human CXCR2 (UniProt P25025 1-360); test: flow cytometry, CXCR2 L1.2 cells
T10 chain: T1 sequence

[12] = target: T1, human CXCR2; test: competition with 125I-labelled CXCL3 (GRO-g) for CXCR2 on human neutrophils
Description: For ligand binding analysis, recombinant human GRO-g (“ligand”) was obtained from Peprotech (New Jersey, USA). 1251-Bolton-Hunter-labelled GRO-g was purchased from Perkin-Elmer (Boston, Mass., USA), with a specific activity of 2200 Ci/mM. Cells were washed once in binding buffer (50 mM Hepes, pH 7.5, 1 mM CaCI, 5 mM MgCb, 0.5% BSA) and resuspended in binding buffer at a concentration of 2.5×10^6 cells/ml. Cold Purified monoclonal antibody (cold competitor) was added to a 96-well plate followed by an equal volume (40 μl) binding buffer containing 1×10^5 cells. Cells and competitor were preincubated at room temperature for 15 min. Then radiolabeled ligand (final concentration 0.5-2 nM) was added to each well to give a final reaction volume of 120 μl. After a 60-min incubation at room temperature, the cells were washed three times with 1 ml of binding buffer containing 150 mM NaCl. The radioactivity (amount of bound label) in the cell pellets was counted in a TopCount liquid scintillation counter (Packard). Non-specific background binding was calculated by incubating cells […] radiolabelled-ligand. Samples were assayed in duplicate.

EC50 [1]: 1.2 nM | EC50 [2]: 1.05 nM | binding result [3]: no binding | binding result [4]: no binding | binding result [5]: no binding | binding result [6]: no binding | binding result [7]: binds | binding result [8]: binds | binding result [9]: no binding | binding result [10]: no binding | EC50 [11]: 1.5 nM | IC50 [12]: 0.7 nM
B1: m3H9 (antibody, mouse IgG3, V domains shown)
VH: QVQLQQSGPELVKPGASVKISCKASGYAFSNSWMNWVKQRPGKGLEWIGRIYPGDGNINYYGKFKDKATLTADKSSNTAYMQLSSLTSEDSAVYFCARSFLYVDFDYWGQGTTLTVSS
VL: VIVMTQTPLSLPVSLGDQASISCRSSQSLVHSNGNTYLQWYLQKPGQSPKLLIYKVSNRFSGVPDRFSGSGSGTDFTLKISRVEAEDLGVYFCSQGTHVPYTFGGGTKLEIKR
notes: also called mouse 3H9; purified mouse 3H9 mAb

EC50 [11]: 2.2 nM
B2: h3H9 (antibody, V domains shown)
VH: QVQLVQSGAEVKKPGASVKVSCKASGYAFSNSWMNWVRQAPGQRLEWIGRIYPGDGNINYYGKFKDKATLTADKSANTAYMELSSLRSEDTAVYFCARSFLYVDFDYWGQGTTLTVSS
VL: B1 VL with V1D, T7S, S14T, L15P, D17E, Q18P, K50Q, L88V, G105Q

EC50 [1]: 1.4 nM | EC50 [2]: 1.35 nM | binding result [3]: no binding | binding result [4]: no binding | binding result [5]: no binding | binding result [6]: no binding | binding result [7]: binds | binding result [8]: binds | binding result [9]: no binding | binding result [10]: no binding | IC50 [12]: 11.1 nM
B3: mCM2 (antibody, V domains shown)
VH: B1 VH with D104Y
VL: B1 VL with V1D, I2A, V56L, S72A, G96S
notes: Mouse hybridoma monoclonal antibody

EC50 [1]: 1.46 nM | EC50 [2]: 1.28 nM | binding result [3]: no binding | binding result [4]: no binding | binding result [5]: no binding | binding result [6]: no binding | binding result [7]: binds | binding result [8]: binds | binding result [9]: no binding | binding result [10]: no binding | IC50 [12]: 3.4 nM
B4: m6G7 (antibody, V domains shown)
VH: B1 VH
VL: B1 VL with V1D, I2V, T7A, S28T
notes: as for B3
